Publication doi:10.1101/2020.06.22.20137695

Tests used:
[1] = molecular target: HCoV-HKU1 spike protein, recombinant soluble ectodomain trimer (HCoV-HKU1) (UniProt Q0ZME7); experiment: SEC
[2] = molecular target: HCoV-OC43 spike protein, recombinant soluble ectodomain trimer (HCoV-OC43 | bacteriophage T4) (UniProt P36334); experiment: SEC

Row | Substance | stoichiometry N [1] | stoichiometry N [2]
1 | HCoV-HKU1 spike protein, recombinant soluble ectodomain trimer (from UniProt Q0ZME7 13-1295) (domain or fragment) | 3 | 
2 | HCoV-OC43 spike protein, recombinant soluble ectodomain trimer (from UniProt P36334 14-1297) (domain or fragment) |  | 3
